Laboratory results taken from patent publication US20250041389A1, “ENHANCING ABSORPTION OF DIETARY COMPOUNDS TO PROMOTE HEALTH” (ARIZONA BOARD OF REGENTS ON BEHALF OF THE UNIVERSITY OF …, priority 2023, published 2025).

Key:
[1] = Oral gavage of GUSB followed by curcumin in mice; assay of curcumin metabolites in serum and bone; assay type: in vivo, C57BI6 mice; conditions: after oral administration of GUSB with curcumin; FIG. 1
Text: Experimental Methods: Administer 140 U/g body weight of GUSB (E. coli-derived [Sigma G840]) orally via gavage (vs vehicle) to 10-week-old male C57BI6 mice.

[2] = Enzymatic activity of orally administered enzyme after passage through proteolytic sections of the GI tract; assay type: in vivo; conditions: oral administration

B1: GUSB: Beta-glucuronidase enzyme; E. coli-derived [Sigma G840] in Example 1 (protein, UniProt P05804 1-603, looked up)
Beta-glucuronidase: MLRPVETPTREIKKLDGLWAFSLDRENCGIDQRWWESALQESRAIAVPGSFNDQFADADIRNYAGNVWYQREVFIPKGWAGQRIVLRFDAVTHYGKVWVNNQEVMEHQGGYTPFEADVTPYVIAGKSVRITVCVNNELNWQTIPPGMVITDENGKKKQSYFHDFFNYAGIHRSVMLYTTPNTWVDDITVVTHVAQDCNHASVDWQVVANGDVSVELRDADQQVVATGQGTSGTLQVVNPHLWQPGEGYLYELCVTAKSQTECDIYPLRVGIRSVAVKGEQFLINHKPFYFTGFGRHEDADLRGKGFDNVLMVHDHALMDWIGANSYRTSHYPYAEEMLDWADEHGIVVIDETAAVGFNLSLGIGFEAGNKPKELYSEEAVNGETQQAHLQAIKELIARDKNHPSVVMWSIANEPDTRPQGAREYFAPLAEATRKLDPTRPITCVNVMFCDAHTDTISDLFDVLCLNRYYGWYVQSGDLETAEKVLEKELLAWQEKLHQPIIITEYGVDTLAGLHSMYTDMWSEEYQCAWLDMYHRVFDRVSAVVGEQVWNFADFATSQGILRVGGNKKGIFTRDRKPKSAAFLLQKRWTGMNFGEKPQQGGKQ
- enzyme levels in the body [1]: unchanged
- enzymatic activity after passing through the proteolytic sections of the GI tract (stomach and duodenum) [2]: retain their enzymatic activity
